The target in series [1] is T1, glycated hemoglobin HbA1c (UniProt P69905;P68871 P69905:2-142,P68871:2-147). Description: impedance; HbA1C-specific, Kd stated only as nanomolar range. As to conditions: tags: none; purified HbA1C from Monojo (Amman, Jordan); immobilized on cysteamine/PDITC gold electrode; chain copies: 2. The protocol:
(§1) Binding analysis of the aptamer sequences to Hb and HbA1C: In order to test the binding affinity of the aptamer sequences to their protein targets, some representative sequences were synthesized after eliminating the primers sequence. A solution of 25 nM from each aptamer sequence in binding buffer was incubated with the Hb and HbA1C-modified electrodes (described in section 2.3.4) for 30 min. The electrodes were then washed with binding buffer and impedance measurements were recorded in 5 mM [Fe(CN)_6]^{3-/4-} redox couple. The binding was then evaluated by calculating the % $RCT$ change)((R−R°/R°%).
A significant change in the $Rct$ after the incubation of most of the tested aptamers with the HbA1C electrodes while no response was obtained with scrambled DNA sequence (control DNA) indicating specific binding of the aptamers to HbA1C. […] The highest change in EIS signal was obtained for aptamers G11, G23, G18, G20, G15, therefore these aptamers were subjected to further analysis to assess their binding affinity. The dissociation constants were determined by incubating different concentrations of the aptamers with Hb and HbA1C-modified electrodes. […] The K_d were then calculated from the binding curve using non linear regression analysis. […] Four HbA1C-specific aptamers with high affinity and specificity were obtained (G11, G18, G20, G23). […] The aptamer sequences may be made in full or part of it may be used for binding studies. Thus, from our SELEX screening, an aptamer that bind to the tHb (G15) as well as specific aptamers to HbA1C (G20) were obtained.

In series [2] the target is T1, glycated hemoglobin HbA1c. Description: electrochemical impedance on HbA1C-gold electrode; 50 mM Tris pH 7.5, 150 mM NaCl, 2 mM MgCl2. As to conditions: tags: none; purified HbA1C from Monojo (Amman, Jordan); immobilized on cysteamine/PDITC gold electrode; chain copies: 2. As to the method: as §1
(§2) A significant change in the $Rct$ after the incubation of most of the tested aptamers with the HbA1C electrodes while no response was obtained with scrambled DNA sequence (control DNA) indicating specific binding of the aptamers to HbA1C. […] The highest change in EIS signal was obtained for aptamers G11, G23, G18, G20, G15, therefore these aptamers were subjected to further analysis to assess their binding affinity. The dissociation constants were determined by incubating different concentrations of the aptamers with Hb and HbA1C-modified electrodes. […] The K_d were then calculated from the binding curve using non linear regression analysis. […] Four HbA1C-specific aptamers with high affinity and specificity were obtained (G11, G18, G20, G23). […]

For series [3], the target named is T2, bovine serum albumin (BSA) (Bos taurus, UniProt P02769 P02769:25-607). Description: impedance; specificity control. The settings on record: tags: none; Sigma. The protocol:
The binding specificity of the HbA1C aptamer (G20) was also confirmed by incubating the HbA1C modified electrode with different concentrations of non glycated Hb and BSA as control. No significant response was obtained for the non specific proteins which indicates excellent specificity of the selected aptamer (FIG. 3). Similarly, the specificity of the tHb aptamer (G15) was verified against BSA as control. The two aptamers, G15 and G20, were then applied for Hb and HbA1C detection a microarray platform.

Series [4] has as its target T3, hemoglobin (Hb, non-glycated / total Hb) (UniProt P69905;P68871 P69905:2-142,P68871:2-147). Description: electrochemical impedance on Hb-gold electrode; 50 mM Tris pH 7.5, 150 mM NaCl, 2 mM MgCl2. As to conditions: tags: none; purified Hb from Monojo (Amman, Jordan); immobilized on cysteamine/PDITC gold electrode; chain copies: 2. As to the method: as §1, §2
The target of series [5] is T2, bovine serum albumin (BSA). Description: square wave voltammetry; no response with BSA. The settings on record: tags: none; Sigma. As to the method: (§3) For the Hb and HbA1C detection and selectivity experiments, each aptamer-modified electrode on the aptasensor array chip was incubated for 30 min with specific concentrations of Hb and HbA1C standard solutions. The electrodes were then washed with 50 mM Tris-HCl buffer pH 7.4 and subjected to square wave voltammetry (SWV) measurements in 10 mM [Fe(CN)_6]^{3-/4-} redox couple in 0.1 M PBS buffer solution. The parameters used for the SWV measurements: amplitude 20 mV; interval time 0.04 s; step potential −5 mV; scan rate 125 mV s-1, and frequency 25 Hz. The cyclic voltammetry (CV) experiments were conducted at a scan rate of 100 mV/s.
(§4) Dose response of the aptasensors: The aptasensors voltammetric response toward tHb and HbA1C was measured in the concentration range of 100 pg/mL to 10 µg/mL. […] Three independent measurements were done for each data point in order to assess the reproducibility of the aptasensors array. […] The linear regression equation of the HbA1C aptasensor is (i°–i)/ i°%=45.0+14.6×log C [ng/ml], R=0.997, with a detection limit (LOD) of 0.2 ng/mL and for the tHb: (i°−i)/i°%=42.5+20.2×log C [ng/ml], R=0.98, with LOD=0.34 ng/ml. The LOD was calculated from 3(S_{y/x}/m), where S_{y/x} is the standard error of estimate and m is the slope of the calibration curve. […]

Series [6] concerns the target T3, hemoglobin (Hb, non-glycated / total Hb). Description: square wave voltammetry aptasensor on AuNP electrode; LOD 0.34 ng/mL. The settings on record: tags: none; purified Hb from Monojo (Amman, Jordan); immobilized on cysteamine/PDITC gold electrode; chain copies: 2. The protocol:
as §3, §4

Series [7] has as its target T1, glycated hemoglobin HbA1c. Description: impedance screen at 25 nM aptamer; lower signal than top five. The settings on record: tags: none; purified HbA1C from Monojo (Amman, Jordan); immobilized on cysteamine/PDITC gold electrode; chain copies: 2. The protocol: as §1
Binding affinity analysis of the aptamers: Eight representative sequences were subjected to initial binding analysis. Initial screening of the aptamer sequences (G11, G23, G20, G18, G15, G10, G22, G4) was performed using EIS to confirm their successful binding to HbA1C (FIG. 2A).

Series [8] deals with T2, bovine serum albumin (BSA). Kind of series: impedance; no significant response. The settings on record: tags: none; Sigma.
Series [9] has as its target T1, glycated hemoglobin HbA1c. Description: square wave voltammetry aptasensor on AuNP electrode; LOD 0.2 ng/mL. As to conditions: tags: none; purified HbA1C from Monojo (Amman, Jordan); immobilized on cysteamine/PDITC gold electrode; chain copies: 2. As to the method:
as §3, §4

A word on the Kd: it is the equilibrium constant for the complex coming apart. Read a high Kd as a looser complex.

T2 sequence (P02769 25-607, one chain of several): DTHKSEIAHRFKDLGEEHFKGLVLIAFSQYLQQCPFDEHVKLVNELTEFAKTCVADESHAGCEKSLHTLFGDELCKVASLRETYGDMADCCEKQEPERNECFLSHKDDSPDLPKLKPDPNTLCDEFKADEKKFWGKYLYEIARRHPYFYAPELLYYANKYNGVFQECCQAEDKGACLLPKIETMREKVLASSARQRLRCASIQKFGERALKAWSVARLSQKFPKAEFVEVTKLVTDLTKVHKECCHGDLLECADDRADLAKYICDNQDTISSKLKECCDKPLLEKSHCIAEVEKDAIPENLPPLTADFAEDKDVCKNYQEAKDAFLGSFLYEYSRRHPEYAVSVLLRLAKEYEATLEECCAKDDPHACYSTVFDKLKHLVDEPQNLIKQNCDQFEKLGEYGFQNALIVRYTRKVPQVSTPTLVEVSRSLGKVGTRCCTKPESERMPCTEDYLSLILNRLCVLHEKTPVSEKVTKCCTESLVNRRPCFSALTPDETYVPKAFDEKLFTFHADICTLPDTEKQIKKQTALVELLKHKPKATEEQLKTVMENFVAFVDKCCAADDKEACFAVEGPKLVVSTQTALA
T1 sequence (P69905 2-142, chain 1 of 2): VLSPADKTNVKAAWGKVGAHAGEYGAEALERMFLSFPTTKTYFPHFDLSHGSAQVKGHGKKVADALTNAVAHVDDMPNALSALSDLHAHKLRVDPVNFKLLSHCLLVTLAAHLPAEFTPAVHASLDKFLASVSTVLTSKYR
T1 sequence (P68871 2-147, chain 2 of 2): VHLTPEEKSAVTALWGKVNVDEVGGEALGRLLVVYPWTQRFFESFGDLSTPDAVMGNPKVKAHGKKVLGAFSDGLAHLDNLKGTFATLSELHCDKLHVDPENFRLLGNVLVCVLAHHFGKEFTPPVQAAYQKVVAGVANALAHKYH
T3 sequence (P69905 2-142, chain 1 of 2): as the sequence (P69905 2-142, chain 1 of 2) above
T3 sequence (P68871 2-147, chain 2 of 2): as the sequence (P68871 2-147, chain 2 of 2) above

B1: G23 (ssDNA)
DNA: GGACACGGCAAAGGGGTATAGCCTACCGGACCGTGGACATGGAATTGTGTGCTGCGTGG
As to B1, in [1], the binding result is given as “binds”.

B2: G15 (ssDNA)
DNA: ACGCACACCAGAGACAAGTAGCCCCCCAAACGCGGCCACGGAACGCAGCACCTCCATGGC
Turning to B2, the Kd stood at 3.3 nM in series [2] and 2.7 nM in [4]. Also, the binding result in series [3] is listed as “no binding”.

B3: thiol-G15 (ssDNA)
DNA: B2 DNA
modifications: 5' HS-(CH2)6
Turning to B3, the binding result in [5] is listed as “no binding”; in [6], “binds”.

B4: G11 (ssDNA)
DNA: CGACACCAGCACACAGACCCGAGACACACGTCAGATCAACAGCGACCGTATCATTGGTTG
For the molecule B4, the binding result in series [1] is “binds”.

B5: G4 (ssDNA)
DNA: GGGCCGACGGGAGGGGGAGGGAGAGCAATACGAGGTGGGATGGCAGATTATGGGTGCACT
For the molecule B5, the binding result in series [7] is “binds”.

B6: G20 (ssDNA)
DNA: GGGGACACAGCAACACACCCACCCACCAGCCCCAGCATCATGCCCATCCGTCGTGTGTG
For B6, in series [2], the Kd turned out to be 2.8 nM. Also, the binding result in series [8] is on record as “no binding”.

B7: thiol-G20 (ssDNA)
DNA: B6 DNA
modifications: 5' HS-(CH2)6
Turning to B7, the binding result in [5] is “no binding”; in series [9] it was “binds”.

B8: G18 (ssDNA)
DNA: GGCCACAGCAGCCAGTACACCCACCCACCAGCCCCGTCAACGACCTGAACCTGCCCTGTGTG
For B8, the binding result in [1] is on record as “binds”.

The record behind these values is US9863962, “Aptamers and sensing technology used for detection of glycated hemoglobin in whole blood” (Alfaisal University).
